Assay: protease stability score; higher = more stable; yeast display proteolysis, trypsin and chymotrypsin;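 further: log10 excess protease needed over predicted unfolded state with 0 meaning unfolded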
With “DEELQDRFRRMIRIREEGDEQKLNEQVDPNVRLRVGDKEIKGREQLEEDQKRKNKQMRIRIKHLEVEAQGNKVRVSIHMTMRVNGRPFHFEFTANYTYHNGKLKHADVNIDPDFVREVHQ” the protease stability score was 0.027.
“DEELQDTAHKLLKLRQRGNWKHVQEMFDENARRIVGDKTLTGMTEIAEEVKREHEQWHLKITDLKASVEGDKVDIKFHAVFDVNGHPVTVNAMVVIVNQGDKAKRIQIRIPESVLNRINQ” showed a protease stability score of 0.292.
For “DEELQEEIEKFWKQLEFGNEDSLEKLMDPNAEMRVGDHTLHGRDSIAKELRRRQEEQRVDIHSYKLSAHNGRVTVNIDATFNHNGNPDRKIQRASLEISNGKLKRMDVRDEQ”, the protease stability score was -0.046.
In the case of “DEELQELATRQMEALHTNDEKQWVDLFDPNARQRYGDKTIKGREQFSQHLRDMQRHMRVQIHTFSAQVSNGDIHLKIDQLNNVNGTPYRDTVHLEFRVHNGRVKEVILHVSEDQQKKIER”, the protease stability score is reported as 0.918.
With “DEELQENAEHFMDDLKTGNEDSIKQNADPNAHFQIGDKTFHGREDFVKHIKKQRQHARIQLDVKNIDVQGDHVTINANVIVNVDGRPQSADVTILIRYHNGRIHTVLYSFSEKDKKKMES” the protease stability score was 0.872.
With “DEELQENAEHLVKAMNKGDREEISRQVDKNASVEIGDQELHGREDIRRFFHEVHEEMRFHIEIKTVDVKGNEVTVHAEAENDDNGRPQTNEVDIDIKVKNGKITSMRIQYNS” the protease stability score was -0.539.
“DEELQKLVDDLLQALRSNNPEQFENNFDPNAKIRYGEKDVHGRTRFVKELQRERDDARFRIETYRVDNQGDKASLKMVFQRDHNGQPQRHTARAEIVVKNGKVQTAVFNFDS” showed a protease stability score of -0.018.
For “DEELQKMVEQFFRNEQNGNRDQLKRLADPNVNFQYGDKTIHGMDTFLQRQRERHEDSRQDFKSIDMKVQGDKVRVTAVLEQETDGQPERFRREMTVEAHNGKIKSVNVQHSQ”, the protease stability score was -0.082.
With “DEELQSDVEEFLRNQTTGDEDRLKELADENAKVHVGDKTLHGMDQIKRYERQEREEMRIDYKHWDIKVSGNQVTVHFDFVNRFNGKPQHVSVILHVQFDNGKIKAADYRTDPREREKIRS” the protease stability score was -0.463.
Work on “DEELQSQAERFLKNLQRGDETKLLQQMDPNAKMQYGDKTVHGRERLRTWVKHVKDEMRVQVDKFRQTVSGNHIRFDWDATFNINGTPDKIRIDVDIQVHNGRIKLITFRVSEEQTKRLHS” yielded a protease stability score of 0.371.
For “DEELRKLAEQLVTIFQTGNEHHVQELMDPNAKLQIGDTEFKGREEYVKEVKKRRDEMRFSIKKVKVDAHGDKIDIKIHMTMKHDGKPRDYVVTVHLRVQGDKIKSAHYQDTK”, the protease stability score was 0.155.
“DEELRKNFHTFLELMKNGNPEKLAEMADPNVRVNIGDEQLRGKHRLHQHARHLKHSLRFDYQSVDVKVTGNRVDANLRVVVKVNGKPIDYTVKIHITWRNGKIKTMEIKIPEDDQKKMRR” showed a protease stability score of -0.089.
“DEELRKQAEELLKARKTNDERQNEELFDPNAHVRYGDRTLHGNEQASKDIADRLEEIRVSMSVEKVEVQGEHVRLEFKFEFEVNGRPQTQTATEEMTVHNGRIKEVRLNVSEEQKRRYKK” showed a protease stability score of -0.026.
With “DEELRKQAEEVMKAWQHGDEKTYMDLFDPNAKWEYGDDNITGRENMSDYMRKVRKEIRVHVQSVEVRAHNGRLEVVATEEREHNGRPDTVTVIMEAKAHNGKIQVVRVEERQ” the protease stability score was 0.404.
Sequence “DEELRRRLEKFFRDLRNGNESEAVKLVDPNARFNIGDTEYHGMHDYARELLRQRHKLNWHVRQVTIEAKNGHVNITMSVQFNVNGRPDSYTNTVRAVLHNGRVKEMSNRVPKDQLHKIKK” has a protease stability score of 0.209.
“DEELSKRAKHLIEMMKTGDEKEIQKQMDKDVKIDIGDKTIKGREDAAEQWRNRVEKIRWSLTIRHVNVQGNHVTMNVEVHLNVNGQPNRYTIEISFTFHNGKIVYISVSFDEDTEEKAKK” showed a protease stability score of 1.18.
Work on “DEELTKRAQKQINVLRTGDEKKVLELMDPNAKLSVGEKEYHGMEDIAKTLAQENRQMRIDVKDMKFTSKGDTVDVTLSYVVDHNGQPDEQVVRVHIVAHNGKIKSQEVRRDS” yielded a protease stability score of -0.762.
“DEELVDQVKSFIELLQKGNEDELMKQLDEDAKIHYGDKTIHGREQVREWVKRFKDEMRQKIDSVQFREKPNRVSMKADMSYTQNGTPHDQQIDATFRAHNGRIKQVNIQLTK” gave a protease stability score of -0.084.
For “DEELVEQLKKMYENEKNGDPDKVHEQFDKDARIDIGEKQVRGRDQASREAERERKQINVEIKHVDIKAHNGRATIDMVIVFNINGQPHRRRVTVYAVLHNGKIKSMSRHMDPSEQDQLTQ”, the protease stability score was 0.343.
Work on “DEELVKRAEDMIKAIQRGDEDRINQMVDPNADVRVGDQRYDGMHEYVTRLKSRQKRMRRSVSVESVTAKNGQVRIDAKMTRNDNGRPERFKHIIIIKAENGEIQVIHVHKSQ” yielded a protease stability score of -0.078.
For “DEELVKRLKKLLEALESGDEEKVHHMFDPNVRFQVGDKRFHGRERYASTVKREKDEMRNEVTSYRLTATGDKAEMSFRNILDENGSPHDDIQVMHVHVQGDKIKRASIQETR”, the protease stability score was 0.071.
Work on “DEELYKLMEQVIKAWEENDETQLKRLADPNVKVSIGDKRVHGRDQMAEDAKRRKKQLRFNIDIKSYSVHNGRVNARATVHNDVNGQPREDTVNIQMEWSNGQLTNFNMRMDEDFLRKIRS” yielded a protease stability score of 0.752.
Work on “DEEMEKRWEEWLDAVTTGDESRVREYMDPNVRYNYGDKHYTGREEIAHDTVREVKRIRIEIKTMSNDDQGEHVRVRFNRVKNDNGEPKEEVLVVEFTQENGRITEATQHEDR” yielded a protease stability score of -0.004.
Work on “DEEMLEVVKQLLHAYQNGDEEKVKRLLDPNARVQVGDQVVHGRESYANEVRKERDEIRFDVKITSVKVHNGKIDIKADVHVNINGKPVKFDVIIEYKMEGDKIKQINVQMDPSQWKERES” yielded a protease stability score of 0.913.
“DEEMNKRAKRLVDVLRTGDFREFLEMVDPNARVQIGDKSWHGMEDYVHDLKEKRDQIKMHYEVKHMTAHDGRAHLEIDAEANVNGQPLSFSFTLHLQFQNGRVTHAEYQLDEDRLRKLEQ” gave a protease stability score of 0.911.
In the case of “DEENADVIRRFLDAIHTGNPDDARKNADPNAQYKIGDKTYSGMERWVKTLQDQKRHQEIDIKIKHISVKGDKITVEFVVVVNINGRPVSFSAILSAEVKNGKIKHLQYHISEEQKRKVEG”, the protease stability score is reported as 0.222.
“DEENAERLKKIFRAVQENDSKQIERNFDPNAEVTYGDKTVTGREEQSREYHKILHEIRVRIQIKHVKVHNGRLSIHAKMDREHNGEPDDATLIVEAHFHNGKATEQQNDVHK” gave a protease stability score of 0.44.
“DEENAHEAVRIWETGDPQENADLVDPNVHARYGDKKIRGREDMEEFWRRMHHQIDHKDVRDIQVSGNHIEIDMEINVDGVRARYVARYHMDNGKIKSANAEFRDPDEKQDIRRALD” gave a protease stability score of 0.275.
Work on “DEENAKIIENLIRANETNDPDRAVQLADENVDFRIGDRTYRGMDEYATQMAHEFKEIEMRIHLKTFDTQGEKVRLEADVKRTHNGKPESFRAVMVANASNGRVVEIDVQMDK” yielded a protease stability score of 0.974.
Work on “DEENAKTLKQQMNQYQSGDEEEVQENVDKDAKFVIGDKRIHGREKYREQVRRELEDIRIDVKIKHLNDKGEKVQVHARLERNHNGRPTDATVDVVVRWHNGRAKEAQFHTDG” yielded a protease stability score of -0.11.
Work on “DEENEDIFRKYLEDLKKGDPKKLKEQFDKDAEVKVGDDVLHGRRSIARTLHEERKEMRVEIEDVKVRAHNGQLEVRFQQTVDHNGRPKTVRARMEVKFHNGRIKHLSVDERE” yielded a protease stability score of -0.331.
“DEENEDLLRKFVEALERNDEDKIMEQADPNAELRYGDKHIHGREKMRELVQNREKELRLDVKDFEVDVNNGHARITVENVQETNGRPTTTRYRIDASIHNGRLQKVNITSDK” gave a protease stability score of 0.287.
Work on “DEENEKFARRYLEALKHNNPHEMQNMIDPNATLNVGDTRIDGDDQAKKFWSKKLQEISISIRKVSVEVSGNRIDIDAEYELEHNGKPDVNRRTVHLNVKNGKITDLKVRHDK” yielded a protease stability score of -0.063.
With “DEENEQLFNEFLKAMEHGDPNRLNQLMDPDVHIRVGDKQIHGREEAAREIVRQMKEQNRHIDSIEVSAENGELTVNVEMFQTHDGKPKKYTYRAKIVFENGKIKHIDRKHSQ” the protease stability score was 0.884.
With “DEENHRRATELLRAWKTGDEEELKRQMPPDVHIRVGDQEVHGREQAVKHLAQRRREASFRFKIKEYELQGEKIRIVARAEVHHNGEPQRYVVRLVILYRNGQAEEINQQEDG” the protease stability score was 1.25.
With “DEENHTLAKMWFHAYNKGDEDQVRRMADPNVKIQIGDKVIHGRNDEVRWLKERRDHQRSDIKLDHVSASNGRVQIHFTFTVQHNGKPNTSKQQLSMVFQGDKLKSLHMRTDG” the protease stability score was -0.112.
For “DEENIEQLRRMMTNLNTGDFHKMVNLMDPNARVRYGDRQISGREEVRKEWEKIVKSMHIERQVRSIEDHDGRAYADVELRVNVDGRPFSVRFTVVVEVRNGRVKFLEVRVPEEFMEKLDS”, the protease stability score was 1.07.
Sequence “DEENIRVYQEMLEAIKEGDQKRVQELVDPNVEAVYGESQVHGREDIARDLRRVREESRRDVTTYKVTDTNGQITINVDFFQTHDGRPTRKEASVHVQITNGKVKFVEMRDDQ” has a protease stability score of 0.248.
For “DEENKHAAERLMRAIQKGDPDDMVRNMDKDAKVNIGDQQFHGREEVAKQNRKDNKEMRYHQEVKSISVDGDKVTVEATAQFTYNGQPDTFKFSFRAHLHNGRIRHLDVHFDEQTKRDQES”, the protease stability score was 0.101.
With “DEENKKQAERLYTALEKNNPEELKKLADPNARVEVGDTTYHGMRKFLRDLAQTLKELRVEVIEIEIDVQGNQVTAHVHVRVEKNGQPDEFVLIFHFELSNGRIKRVRVERHQ” the protease stability score was 1.12.
“DEENKKRFDKFQEVQKQGDPKQLQSLMDPNVEWRVGDKNYHGRQEIAKDRIRVQREIRIEFNITHYENHNGRVKIHAEAKAKVNGRPQTYDYSFEVVVHNGKIKELNWRVDPEEVDRIES” showed a protease stability score of 0.67.
For “DEENLDAARRLIDALKNNDPDHAMENADKDVRVHIGDWHVHGREDMSRLIKELVDEMRVDVKDVKTRKDGETAVITIDAVFHVNGEPKRDTFTMNVKAHNGHVQRIHARVSEEDVRKLKQ”, the protease stability score was -0.086.
For “DEENLEIAKDLIRAQETGDEERIQNLLDPNVKIDVGDKSIHGREHLRKTQQEQKRNMRFDVDSVENKVHNGQVRVDAHVRERHNGQPTTKRYTLHMHFHNGKVERIRLQDKG”, the protease stability score was 0.318.
With “DEENLHRRAEQFVKALEHGDQHQFRRMFDENARVEVGDKFFHGREEVARFMRDLTRRIDHVQFRRMEVRGEKIIVKAEAHVNGKRVTIIFDLTVKNGRIKHVRITFTDEKDRREFER” the protease stability score was 1.12.
For “DEENLKKVREFLEHLVTGNEREVKHLMDPNAEMEVGDKKYSGTEQLRRLMQELKRHQTNKYDIKDMKVQGNKADLKAKVIERHNGQPDDTEQQFFATMSNGRFKKVSFRTDK”, the protease stability score was -0.295.
In the case of “DEENLNQLKKFWHALQTNNPDQARKLADPNVRLHVGDKSVNGREEMVKRLVDKMHEMEIDYKVRDMHAHNGHIKVEAERVIHDNGQPRRATYEIRVIIKNGRIKEIQIHERQ”, the protease stability score is reported as 1.07.
In the case of “DEENLNRLDEFQQAVQTGDEKEAEELVDPNARVNVGDKQVNGMDKLRRTIHNKRRKMRVEIDHVNFRAKGNHVTARFDFHVNHNGTPRRTQMNVEARFKNGRIKSLRNESVS”, the protease stability score is reported as 0.121.
Work on “DEENLQKIAHKVVRALHDGDPHQMHDLFDKDARISYGDKSVHGRNEISKAAHEREERVDDIDFKSFSVKNGHVEVDAKYDHNGQRREVIVQVEMHNGRIKSARFTKK” yielded a protease stability score of 0.2.
With “DEENLRTLAQEVKDILQTGDEEKLKEMLDKDVRLEVGDHVYEGSENAAKAANHWKERADHIQVDSIEIHGNELRIDVRVNVNGKNIDIDIVVTFSNGRIREMKFQYRDEDEKRQLER” the protease stability score was 0.809.
Work on “DEENLRVVVHLMKAVETGDPTKARRNLDKDVHFNVGNRRIHGREQFQKELDDEKKDISINVKDYRVRDKNGKAHFTVRFVLEVNGRPMEMKITMQAEAHNGRIKHVQQQVSEEDEKRINK” yielded a protease stability score of -0.094.
